Reference: patent US20210277097A1

T1: recombinant purified human RGM A (R&D Systems Cat#2459-RM) (human) (UniProt Q96B86)
T1 sequence: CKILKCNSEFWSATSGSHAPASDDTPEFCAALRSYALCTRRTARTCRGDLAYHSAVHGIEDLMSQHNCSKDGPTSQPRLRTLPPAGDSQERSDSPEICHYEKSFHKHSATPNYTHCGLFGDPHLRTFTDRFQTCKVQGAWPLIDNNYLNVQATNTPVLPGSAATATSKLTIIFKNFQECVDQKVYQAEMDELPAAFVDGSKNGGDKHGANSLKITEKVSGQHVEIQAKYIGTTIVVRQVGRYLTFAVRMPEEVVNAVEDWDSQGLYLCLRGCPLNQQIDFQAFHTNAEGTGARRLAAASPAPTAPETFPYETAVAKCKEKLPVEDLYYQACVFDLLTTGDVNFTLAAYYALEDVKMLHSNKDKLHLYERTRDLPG


Key:
[1] = target: T1, recombinant purified human RGM A (R&D Systems Cat#2459-RM) (human); test: direct ELISA: plate coated with hRGM A 2 µg/mL, biotinylated antibody in 1:5 dilutions, streptavidin-HRP, TMB, OD 450
[2] = target: rat RGM A expressed on BAF3 cells (rat); test: FACS on BAF3-ratRGMA stable cell line, unlabelled antibody, anti-rat IgG PE; unstained cells 4.71
[3] = target: T1, recombinant purified human RGM A (R&D Systems Cat#2459-RM) (human); test: competition ELISA on coated hRGMA; competitor: biotinylated chimeric 5F9

| Binder | EC50 (read off the curve) [1] [µg/mL] | Median, FL2-H [2] | IC50 [3] [µg/mL] |
| --- | --- | --- | --- |
| h5F9.4 (antibody, human IgG1, V domains shown) VH: EVQLVESGGGLVQPGGSLRLSCAASGFTFSNYGMNWIRQAPGKGLEWIGMIYYDSSEKHYADSVKGRFTISRDNSKNTLYLQMNSLRAEDTAVYYCAKGTTPDYWGQGTMVTVSS VL: DIVMTQTPLSLSVTPGQPASISCRSSQSLEYSDGYTFLEWYLQKPGQSPQLLIYEVSNRFSGVPDRFSGSGSGTDFTLKISRVEAEDVGVYYCFQATHDPLTFGQGTKLEIKR |  |  | > 10 |
| h5F9.2 (antibody, human IgG1, V domains shown) VH: EVQLVESGGGVVQPGRSLRLSCAASGFTFSNYGMNWIRQAPGKGLEWIGMIYYDSSEKHYADSVKGRFTISRDNSKNTLYLQMNSLRAEDTAVYYCAKGTTPDYWGQGTMVTVSS VL: DIVMTQTPLSLSVTPGQPASISCRSSQSLEYSDGYTFLEWYLQKPGQSPQLLIYEVSNRFSGVPDRFSGSGSGTDFTLKISRVEAEDVGVYYCFQATHDPLTFGQGTKLEIKR |  |  | > 10 |
| h5F9.6 (antibody, human IgG1, V domains shown) VH: EVQLVESGGGVVQPGRSLRLSCAASGFTFSNYGMNWIRQAPGKGLEWIGMIYYDSSEKHYADSVKGRFTISRDNSKNTLYLQMNSLRAEDTAVYYCAKGTTPDYWGQGTMVTVSS VL: DVVMTQSPLSLPVTLGQPASISCRSSQSLEYSDGYTFLEWFQQRPGQSPRRLIYEVSNRFSGVPDRFSGSGSGTDFTLKISRVEAEDVGVYYCFQATHDPLTFGQGTKLEIKR |  |  | > 10 |
| h5F9.1 (antibody, human IgG1, V domains shown) VH: EVQLVESGGGVVQPGRSLRLSCAASGFTFSNYGMNWVRQAPGKGLEWVAMIYYDSSEKHYADSVKGRFTISRDNSKNTLYLQMNSLRAEDTAVYYCARGTTPDYWGQGTMVTVSS VL: DIVMTQTPLSLSVTPGQPASISCRSSQSLEYSDGYTFLEWYLQKPGQSPQLLIYEVSNRFSGVPDRFSGSGSGTDFTLKISRVEAEDVGVYYCFQATHDPLTFGQGTKLEIKR |  |  | > 10 |
| h5F9.7 (antibody, human IgG1, V domains shown) VH: EVQLVESGGGLVQPGGSLRLSCAASGFTFSNYGMNWVRQAPGKGLEWVSMIYYDSSEKHYADSVKGRFTISRDNSKNTLYLQMNSLRAEDTAVYYCAKGTTPDYWGQGTMVTVSS VL: DVVMTQSPLSLPVTLGQPASISCRSSQSLEYSDGYTFLEWFQQRPGQSPRRLIYEVSNRFSGVPDRFSGSGSGTDFTLKISRVEAEDVGVYYCFQATHDPLTFGQGTKLEIKR |  |  | > 10 |
| h5F9.5 (antibody, human IgG1, V domains shown) VH: EVQLVESGGGVVQPGRSLRLSCAASGFTFSNYGMNWVRQAPGKGLEWVAMIYYDSSEKHYADSVKGRFTISRDNSKNTLYLQMNSLRAEDTAVYYCARGTTPDYWGQGTMVTVSS VL: DVVMTQSPLSLPVTLGQPASISCRSSQSLEYSDGYTFLEWFQQRPGQSPRRLIYEVSNRFSGVPDRFSGSGSGTDFTLKISRVEAEDVGVYYCFQATHDPLTFGQGTKLEIKR |  |  | > 10 |
| h5F9.3 (antibody, human IgG1, V domains shown) VH: EVQLVESGGGLVQPGGSLRLSCAASGFTFSNYGMNWVRQAPGKGLEWVSMIYYDSSEKHYADSVKGRFTISRDNSKNTLYLQMNSLRAEDTAVYYCAKGTTPDYWGQGTMVTVSS VL: DIVMTQTPLSLSVTPGQPASISCRSSQSLEYSDGYTFLEWYLQKPGQSPQLLIYEVSNRFSGVPDRFSGSGSGTDFTLKISRVEAEDVGVYYCFQATHDPLTFGQGTKLEIKR |  |  | > 10 |

Second part, the binder after the results:

| EC50 (read off the curve) [1] [µg/mL] | Median, FL2-H [2] | IC50 [3] [µg/mL] | Binder |
| --- | --- | --- | --- |
| 0.08 | 29.6 |  | rat anti-human RGM A monoclonal antibody 5F9 (antibody, V domains shown) VH: EVQLVESGGGLVQPGSSLKLSCVASGFTFSNYGMNWIRQAPKKGLEWIGMIYYDSSEKHYADSVKGRFTISRDNSKNTLYLEMNSLRSEDTAIYYCAKGTTPDYWGQGVMVTVSS VL: DVVLTQTPVSLSVTLGDQASMSCRSSQSLEYSDGYTFLEWFLQKPGQSPQLLIYEVSNRFSGVPDRFIGSGSGTDFTLKISRVEPEDLGVYYCFQATHDPLTFGSGTKLEIKR |
|  |  | > 10 | h5F9.12 (antibody, human IgG1, V domains shown) VH: EVQLVESGGGLVQPGGSLRLSCAASGFTFSNYGMNWIRQAPGKGLEWIGMIYYDSSEKHYADSVKGRFTISRDNSKNTLYLQMNSLRAEDTAVYYCAKGTTPDYWGQGTMVTVSS VL: DVVMTQSPLSLPVTLGQPASISCRSSQSLEYSDGYTFLEWYLQKPGQSPQLLIYEVSNRFSGVPDRFSGSGSGTDFTLKISRVEAEDVGVYYCFQATHDPLTFGQGTKLEIKR |
|  |  | > 2 | h5F9.26 (antibody, human IgG1, V domains shown) VH: EVQLVESGGGLVQPGGSLRLSCAASGFTFSNYGMNWIRQAPGKGLEWIGMIYYDSSEKHYADSVKGRFTISRDNSKNTLYLQMNSLRAEDTAVYYCAKGTTPDYWGQGTMVTVSS VL: DVVLTQSPLSLPVTLGQPASISCRSSQSLEYSDGYTFLEWYLQKPGQSPQLLIYEVSNRFSGVPDRFSGSGSGTDFTLKISRVEAEDVGVYYCFQATHDPLTFGQGTKLEIKR |
|  |  | > 2 | h5F9.22 (antibody, human IgG1, V domains shown) VH: EVQLVESGGGVVQPGRSLRLSCAASGFTFSNYGMNWIRQAPGKGLEWIGMIYYDSSEKHYADSVKGRFTISRDNSKNTLYLQMNSLRAEDTAVYYCAKGTTPDYWGQGTMVTVSS VL: DVVLTQSPLSLPVTLGQPASISCRSSQSLEYSDGYTFLEWYLQKPGQSPQLLIYEVSNRFSGVPDRFSGSGSGTDFTLKISRVEAEDVGVYYCFQATHDPLTFGQGTKLEIKR |
|  |  | > 10 | h5F9.10 (antibody, human IgG1, V domains shown) VH: EVQLVESGGGVVQPGRSLRLSCAASGFTFSNYGMNWIRQAPGKGLEWIGMIYYDSSEKHYADSVKGRFTISRDNSKNTLYLQMNSLRAEDTAVYYCAKGTTPDYWGQGTMVTVSS VL: DVVMTQSPLSLPVTLGQPASISCRSSQSLEYSDGYTFLEWYLQKPGQSPQLLIYEVSNRFSGVPDRFSGSGSGTDFTLKISRVEAEDVGVYYCFQATHDPLTFGQGTKLEIKR |
|  |  | > 10 | h5F9.8 (antibody, human IgG1, V domains shown) VH: EVQLVESGGGLVQPGGSLRLSCAASGFTFSNYGMNWIRQAPGKGLEWIGMIYYDSSEKHYADSVKGRFTISRDNSKNTLYLQMNSLRAEDTAVYYCAKGTTPDYWGQGTMVTVSS VL: DVVMTQSPLSLPVTLGQPASISCRSSQSLEYSDGYTFLEWFQQRPGQSPRRLIYEVSNRFSGVPDRFSGSGSGTDFTLKISRVEAEDVGVYYCFQATHDPLTFGQGTKLEIKR |
|  |  | > 2 | h5F9.20 (antibody, human IgG1, V domains shown) VH: EVQLVESGGGVVQPGRSLRLSCAASGFTFSNYGMNWIRQAPGKGLEWIGMIYYDSSEKHYADSVKGRFTISRDNSKNTLYLQMNSLRAEDTAVYYCAKGTTPDYWGQGTMVTVSS VL: DVVLTQSPLSLPVTLGQPASISCRSSQSLEYSDGYTFLEWFQQRPGQSPRRLIYEVSNRFSGVPDRFSGSGSGTDFTLKISRVEAEDVGVYYCFQATHDPLTFGQGTKLEIKR |
|  |  | > 10 | h5F9.11 (antibody, human IgG1, V domains shown) VH: EVQLVESGGGLVQPGGSLRLSCAASGFTFSNYGMNWVRQAPGKGLEWVSMIYYDSSEKHYADSVKGRFTISRDNSKNTLYLQMNSLRAEDTAVYYCAKGTTPDYWGQGTMVTVSS VL: DVVMTQSPLSLPVTLGQPASISCRSSQSLEYSDGYTFLEWYLQKPGQSPQLLIYEVSNRFSGVPDRFSGSGSGTDFTLKISRVEAEDVGVYYCFQATHDPLTFGQGTKLEIKR |
|  |  | > 10 | h5F9.9 (antibody, human IgG1, V domains shown) VH: EVQLVESGGGVVQPGRSLRLSCAASGFTFSNYGMNWVRQAPGKGLEWVAMIYYDSSEKHYADSVKGRFTISRDNSKNTLYLQMNSLRAEDTAVYYCARGTTPDYWGQGTMVTVSS VL: DVVMTQSPLSLPVTLGQPASISCRSSQSLEYSDGYTFLEWYLQKPGQSPQLLIYEVSNRFSGVPDRFSGSGSGTDFTLKISRVEAEDVGVYYCFQATHDPLTFGQGTKLEIKR |
| 0.2 | 5.37 |  | rat anti-human RGM A monoclonal antibody 8D1 (antibody, V domains shown) VH: EVQLQQSGPELVKPGTSVKMSCKTSGYTFTSYVMHWVKQKPGQGLEWIGYIIPYNDNTKYNEKFKGKATLTSDKSSSTAYMELSSLTSEDSAVYYCARRNEYYGSSFFDYWGQGTTLTVSS VL: DIQMTQSPASLSASLEEIVTITCQASQDIDNYLAWYHQKPGKSPRLLIYGATNLADGVPSRFSGSRSGTQFSLKINRLQIEDLGIYYCLQGYIPPRTFGGGTKLELKR |
